Experiment [1] concerns the target T1, cMET extracellular domain (human, UniProt P08581 25-932).
T1 construct: extracellular domain; also called human c-MET
As to the kind of experiment: Octet BLI, protein A biosensors, extracellular domain as antigen. The protocol:
(§1) The affinity of BxM wildtype and MaB40 was analysed using an Octet system with biosensors coated with protein A. As antigens, the extracellular domains of cMET and EGFR were used. Three different concentrations of antibody were tested to determine the affinity.
For orientation: BLI is a label-free optical method that tracks binding on a fibre tip over time.

Experiment [2] concerns the target T2, EGFR extracellular domain (human, UniProt P00533 25-645).
T2 construct: extracellular domain; also called human EGFR; epidermal growth factor receptor
The description is as above. The protocol:
as §1

Substitutions are numbered along the chain they refer to. Names may count otherwise.

B1: BxM wt (B10v5 x hu225M SEED bispecific IgG without interface mutations) (bispecific antibody)
heavy 1: not shown
light 1: EPVLTQPPSVSVAPGETATIPCGGDSLGSKIVHWYQQRPGQAPLLVVYDDAARPSGIPERFSGSKSGTTATLTISSVEAGDEADYFCQVYDYHSDVEVFGGGTKLTVLGQPKAAPSVTLFPPSSEELQANKATLVCLISDFYPGAVTVAWKADSSPVKAGVETTTPSKQSNNKYAASSYLSLTPEQWKSHKSYSCQVTHEGSTVEKTVAPTECS
heavy 2: EVQLVQSGAEVKKPGASVKVSCKASGFSLTNYGVHWMRQAPGQGLEWIGVIWSGGNTDYNTPFTSRVTITSDKSTSTAYMELSSLRSEDTAVYYCARALTYYDYEFAYWGQGTLVTVSSASTKGPSVFPLAPSSKSTSGGTAALGCLVKDYFPEPVTVSWNSGALTSGVHTFPAVLQSSGLYSLSSVVTVPSSSLGTQTYICNVNHKPSNTKVDKKVEPKSCDKTHTCPPCPAPELLGGPSVFLFPPKPKDTLMISRTPEVTCVVVDVSHEDPEVKFNWYVDGVEVHNAKTKPREEQYNSTYRVVSVLTVLHQDWLNGKEYKCKVSNKALPAPIEKTISKAKGQPREPQVYTLPPPSEELALNELVTLTCLVKGFYPSDIAVEWLQGSQELPREKYLTWAPVLDSDGSFFLYSILRVAAEDWKKGDTFSCSVMHEALHNHYTQKSLDRSPGK
light 2: DIQMTQSPSSLSASVGDRVTITCRASQSIGTNIHWYQQKPGKAPKLLIKYASESISGVPSRFSGSGYGTDFTLTISSLQPEDVATYYCQQNYNWPTTFGQGTKVEIKRTVAAPSVFIFPPSDEQLKSGTASVVCLLNNFYPREAKVQWKVDNALQSGNSQESVTEQDSKDSTYSLSSTLTLSKADYEKHKVYACEVTHQGLSSPVTKSFNRGEC
notes: By LC-ESI-MS the preparation held only 76% of the correctly paired form (12% + 12% light chain mispaired variants); also called BxM wildtype
Broadly, the Kd is the constant that tells how readily two partners part at equilibrium. Read a low Kd as tighter binding. Regarding B1, the figures for the Kd in experiment [1] and in experiment [2] were 0.35 nM and 5.3 nM, respectively.

B2: BxM MaB40 (B10v5 x hu225M SEED bispecific IgG with K26D in CH1 and T18R in CL of hu225M) (bispecific antibody)
heavy 1: not shown
light 1: B1 light 1
heavy 2: B1 heavy 2 with K149D
light 2: B1 light 2 with T129R
notes: Only the correctly paired form was detected by LC-ESI-MS; also called mutant BxM MaB40
With B2, the dissociation constant (Kd) in experiment [1] is 0.42 nM; in experiment [2], 2.9 nM.

Source of the values: patent US20190352429A1 (published 2019).
